Legend:
[1] = molecular target: T1, HLA-DR (DRA*0101/DRB1*0401) on PRIESS cells (human, UniProt P01903 26-254; P01911 30-266); experiment: cell-based or functional assay
T1 MHC II alpha: not shown
T1 MHC II beta: not shown

BSA [2] = molecular target: T2, BSA (bovine, UniProt P02769 25-607); experiment: ELISA, coated antigen
T2 construct: negative control antigen; also called bovine serum albumine

[3] = molecular target: T3, human MHC class II DR protein (DRA*0101/DRB1*0401), purified from PRIESS cells (human, UniProt P01903 26-254; P01911 30-266, limits assumed); experiment: SPR (BIAcore), Fab, chip density 500 RU MHCII
T3 construct: mature; also called HLA-DR protein; MHCII
T3 MHC II alpha: not shown
T3 MHC II beta: not shown

[4] = molecular target: T3, human MHC class II DR protein …; experiment: BiaCore, IgG4
Experimental: The affinities for anti-HLA antibody fragments of the invention were measured as follows. All measurements were conducted in HBS buffer (20 mM HEPES, 150 mM NaCl, pH 7.4) at a flow rate of 20 µl/min at 25° C. on a BIAcore3000 instrument (Biacore AB, Sweden). MHC class II DR protein (prepared as example 1) was diluted in 100 mM sodium acetate pH 4.5 to a concentration of […], and coupled to a CM5 chip (Biacore AB) using standard EDC-NHS coupling chemistry with subsequent ethanolamine treatment as manufacturers directions. The coating density of MHCII was adjusted to between 500 and 4000 RU. Affinities were measured by injection of 5 different concentrations of the different antibodies and using the standard software of the Biacore instrument. Regeneration of the coupled surface was achieved using 10 mM glycine pH 2.3 and 7.5 mM NaOH.

[5] = molecular target: T4, chimeric 0401-IE class II molecule on cells of transgenic mice (human/murine chimera); experiment: cell-based or functional assay
[6] = molecular target: T1, HLA-DR (DRA*0101/DRB1*0401) on PRIESS …; experiment: cell-based or functional assay
HLA-DR on ARH-77 cells = HLA-DR on ARH-77 cells (human); experiment: cell-based or functional assay
[7] = molecular target: HLA-DR on GRANTA-519 cells (human); experiment: cell-based or functional assay
[8] = molecular target: HLA-DR on KARPAS-422 cells (human); experiment: cell-based or functional assay
[9] = molecular target: HLA-DR on KARPAS-299 cells (human); experiment: cell-based or functional assay
HLA-DR on DOHH-2 cells = HLA-DR on DOHH-2 cells (human); experiment: cell-based or functional assay
HLA-DR on SR-786 cells = HLA-DR on SR-786 cells (human); experiment: cell-based or functional assay
[10] = molecular target: HLA-DR on MHH-CALL-4 cells (human); experiment: cell-based or functional assay
HLA-DR on MN-60 cells = HLA-DR on MN-60 cells (human); experiment: cell-based or functional assay
HLA-DR on BJAB cells = HLA-DR on BJAB cells (human); experiment: cell-based or functional assay
HLA-DR on RAJI cells = HLA-DR on RAJI cells (human); experiment: cell-based or functional assay
HLA-DR on L-428 cells = HLA-DR on L-428 cells (human); experiment: cell-based or functional assay
HLA-DR on HDLM-2 cells = HLA-DR on HDLM-2 cells (human); experiment: cell-based or functional assay
HLA-DR on HD-MY-Z cells = HLA-DR on HD-MY-Z cells (human); experiment: cell-based or functional assay
HLA-DR on KM-H2 cells = HLA-DR on KM-H2 cells (human); experiment: cell-based or functional assay
HLA-DR on L1236 cells = HLA-DR on L1236 cells (human); experiment: cell-based or functional assay
HLA-DR on BONNA-12 cells = HLA-DR on BONNA-12 cells (human); experiment: cell-based or functional assay
HLA-DR on HC-1 cells = HLA-DR on HC-1 cells (human); experiment: cell-based or functional assay
HLA-DR on NALM-1 cells = HLA-DR on NALM-1 cells (human); experiment: cell-based or functional assay
HLA-DR on L-363 cells = HLA-DR on L-363 cells (human); experiment: cell-based or functional assay
HLA-DR on EOL-1 cells = HLA-DR on EOL-1 cells (human); experiment: cell-based or functional assay
HLA-DR on LP-1 cells = HLA-DR on LP-1 cells (human); experiment: cell-based or functional assay
[11] = molecular target: HLA-DR on RPMI-8226 cells (human); experiment: cell-based or functional assay
[12] = molecular target: HLA-DR on MHH-PREB-1 cells (human); experiment: cell-based or functional assay
[13] = molecular target: T4, chimeric 0401-IE class II molecule on …; experiment: cell-based or functional assay; remark: listed apart in the source
[14] = molecular target: T3, human MHC class II DR protein …; experiment: SPR (BIAcore), IgG4 over MHCII on CM5 chip
BSA [15] = molecular target: T2, BSA; experiment: ELISA, purified coated protein, OD at 370 nm minus background
[16] = molecular target: T3, human MHC class II DR protein …; experiment: BiaCore, Fab
HLA-DR on LG-2 cells = HLA-DR on LG-2 cells (human); experiment: cell-based or functional assay
[17] = molecular target: T3, human MHC class II DR protein …; experiment: SPR (BIAcore), MHCII on CM5 chip
[18] = molecular target: T3, human MHC class II DR protein …; experiment: SPR (BIAcore), MHCII on CM5 chip
[19] = molecular target: T3, human MHC class II DR protein …; experiment: ELISA, coated antigen, Fab 100 ng/well, read at 370 nm
Experimental: After washing in PBS the anti-human IgG F(ab')_2-peroxidase-conjugate at a 1:10,000 dilution in TBS (supplemented with 5% w/v non-fat drymilk/0.05% v/v Tween 20) was added to each well for 1 h. Final washes were carried out in PBS followed the addition the substrate POD (Roche).

T2 sequence (P02769 25-607 limits assumed): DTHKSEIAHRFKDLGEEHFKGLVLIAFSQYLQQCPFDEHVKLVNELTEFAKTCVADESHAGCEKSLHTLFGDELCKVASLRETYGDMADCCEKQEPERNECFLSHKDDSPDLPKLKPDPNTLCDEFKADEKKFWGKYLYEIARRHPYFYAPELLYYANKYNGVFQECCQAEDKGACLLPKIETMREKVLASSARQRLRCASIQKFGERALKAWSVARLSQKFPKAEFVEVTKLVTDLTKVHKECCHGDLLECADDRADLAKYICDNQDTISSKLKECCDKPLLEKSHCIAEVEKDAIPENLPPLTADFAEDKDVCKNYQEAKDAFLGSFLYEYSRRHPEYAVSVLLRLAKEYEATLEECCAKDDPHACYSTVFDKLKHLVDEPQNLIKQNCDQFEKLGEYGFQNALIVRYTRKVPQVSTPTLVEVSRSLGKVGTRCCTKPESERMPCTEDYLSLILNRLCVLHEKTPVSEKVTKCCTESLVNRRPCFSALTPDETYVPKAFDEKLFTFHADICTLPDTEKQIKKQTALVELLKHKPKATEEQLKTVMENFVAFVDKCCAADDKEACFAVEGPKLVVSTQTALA

B1: MS-GPC-10 Fab (Fab, V domains shown)
VH: QVQLKESGPALVKPTQTLTLTCTFSGFSLSTSGVGVGWIRQPPGKALEWLALIDWDDDKYYSTSLKTRLTISKDTSKNQVVLTMTNMDPVDTATYYCARQLHYRGGFDLWGQGTLVTVSS
VL: DIVLTQPPSVSGAPGQRVTISCSGSSSNIGSNYVSWYQQLPGTAPKLLIYDNNQRPSGVPDRFSGSKSGTSASLAITGLQSEDEADYYCQSYDLTMGVFGGGTKLTVLG
notes: Fab from pMx9_Fab: VH-CH1 with FLAG tag and STREP tag II, VL-CL; VH residue 1 is Q in Fab; also called E6-Fab; E6
EC50 of cell killing, cross-linked Fab, bivalent agent [1]: 33 nM | binding result (BSA [2]): no binding | Kd [3]: 2860 nM | koff [3]: 0.063 s⁻¹ | kon [3]: 22000 M⁻¹ s⁻¹

B2: MS-GPC-8-10-57 IgG4 (antibody, V domains shown)
VH: QVQLKESGPALVKPTQTLTLTCTFSGFSLSTSGVGVGWIRQPPGKALEWLALIDWDDDKYYSTSLKTRLTISKDTSKNQVVLTMTNMDPVDTATYYCARSPRYRGAFDYWGQGTLVTVSS
VL: DIVLTQPPSVSGAPGQRVTISCSGSESNIGNNYVQWYQQLPGTAPKLLIYDNNQRPSGVPDRFSGSKSGTSASLAITGLQSEDEADYYCQSYDLIRHVFGGGTKLTVLG
notes: also called 1C7277; IgG form of MS-GPC-8-10-57
Kd [4]: 0.3 nM | koff [4]: 0.00031 s⁻¹ | IC50 value for inhibition of T cell proliferation [5]: 11 nM | % Killing by mAb, 50 nM, 4 h [6]: 93% | % Killing by mAb, 50 nM, 4 h (HLA-DR on ARH-77 cells): 88% | % Killing by mAb, 50 nM, 4 h [7]: 78% | % Killing by mAb, 50 nM, 4 h [8]: 68% | % Killing by mAb, 50 nM, 4 h [9]: 79% | % Killing by mAb, 50 nM, 4 h (HLA-DR on DOHH-2 cells): 60% | % Killing by mAb, 50 nM, 4 h (HLA-DR on SR-786 cells): 44% | % Killing by mAb, 50 nM, 4 h [10]: 46% | % Killing by mAb, 50 nM, 4 h (HLA-DR on MN-60 cells): 66% | % Killing by mAb, 50 nM, 4 h (HLA-DR on BJAB cells): 67% | % Killing by mAb, 50 nM, 4 h (HLA-DR on RAJI cells): 86% | % Killing by mAb, 50 nM, 4 h (HLA-DR on L-428 cells): 91% | % Killing by mAb, 50 nM, 4 h (HLA-DR on HDLM-2 cells): 84% | % Killing by mAb, 50 nM, 4 h (HLA-DR on HD-MY-Z cells): 57% | % Killing by mAb, 50 nM, 4 h (HLA-DR on KM-H2 cells): 88% | % Killing by mAb, 50 nM, 4 h (HLA-DR on L1236 cells): 66% | % Killing by mAb, 50 nM, 4 h (HLA-DR on BONNA-12 cells): 91% | % Killing by mAb, 50 nM, 4 h (HLA-DR on HC-1 cells): 86% | % Killing by mAb, 50 nM, 4 h (HLA-DR on NALM-1 cells): 78% | % Killing by mAb, 50 nM, 4 h (HLA-DR on L-363 cells): 24% | % Killing by mAb, 50 nM, 4 h (HLA-DR on EOL-1 cells): 49% | % Killing by mAb, 50 nM, 4 h (HLA-DR on LP-1 cells): 70% | % Killing by mAb, 50 nM, 4 h [11]: 26% | % Killing by mAb, 50 nM, 4 h [12]: 8% | EC50 of cell killing, IgG4 [1]: 1.1 nM | IC50 of inhibition of IL-2 secretion from T-Hyb 1 cells [13]: 0.31 nM | Maximum inhibition(%) of IL-2 secretion [13]: 100% | Kd [14]: 0.6 nM | koff [14]: 4e-05 s⁻¹ | kon [14]: 70000 M⁻¹ s⁻¹ | binding result (BSA [15]): no binding

B3: MS-GPC-8-27-41 Fab (Fab, V domains shown)
VH: QVQLKESGPALVKPTQTLTLTCTFSGFSLSTSGVGVGWIRQPPGKALEWLALIDWDDDKYYSTSLKTRLTISKDTSKNQVVLTMTNMDPVDTATYYCARSPRYRGAFDYWGQGTLVTVSS
VL: DIVLTQPPSVSGAPGQRVTISCSGSESNIGNNYVQWYQQLPGTAPKLLIYDNNQRPSGVPDRFSGSKSGTSASLAITGLQSEDEADYYCQSYDMNVHVFGGGTKLTVLG
notes: Fab: VH-CH1 with FLAG tag and STREP tag II, VL-CL; VH residue 1 is Q in Fab; also called 1D09C3
Kd [16]: 2.93 nM | koff [16]: 0.00049 s⁻¹ | kon [16]: 167000 M⁻¹ s⁻¹ | EC50 of cell killing, cross-linked Fab, bivalent agent (HLA-DR on LG-2 cells): 7.2 nM | EC50 of cell killing, cross-linked Fab, bivalent agent [1]: 7.7 nM | IC50 of inhibition of IL-2 secretion from T-Hyb 1 cells [13]: 3.6 nM (half the concentration of the Fab) | Maximum inhibition(%) of IL-2 secretion [13]: 100% | Kd [17]: 2.93 nM | koff [17]: 0.00049 s⁻¹ | kon [17]: 167000 M⁻¹ s⁻¹ | Kd [18]: 2.9 nM | koff [18]: 0.00049 s⁻¹ | kon [18]: 170000 M⁻¹ s⁻¹ | ELISA signal [19]: 1.52

From patent publication US7521047 (GPC BIOTECH, dated 2009)
